Reference: US20210315969A1, “GLYCOPROTEINS HAVING LIPID MOBILIZING PROPERTIES AND THERAPEUTIC USES THEREOF” (Aston University, priority 2008, published 2021)
Marks after values point to notes of the source that are not given here.

Tests used:
[1] = ZAG i.v. administration to ob/ob mice, 5 day study (body weight, temperature, plasma metabolites); assay type: in vivo
Description: Animals—Mice—Homozygous obese (ob/ob) mice from the colony maintained at Aston University were used in the present study. The origin and characteristics of Aston ob/ob mice have been previously described. Male mice (20-21 weeks old, weight 90-100 g) were grouped into three per cage in an air conditioned room at 22 ±2° C. with a 12 h-light:12 h-dark cycle and fed a rat and mouse breeding diet (Special Diet Services, Witham, UK) and tap water ad libitum. They were administered ZAG (35 μg) in PBS (100 μl) b.d. by i.v. administration and body weight and food and water intake were monitored daily. Control mice received PBS alone. Body temperature was measured daily by the use of a rectal thermometer (RS Components, Northants, UK). All animal experiments were carried out in accordance with the U.K. Animals (Scientific Procedures) Act 1986.
(§1) Serum Metabolite Determinations—Non-esterified fatty acids (NEFA) were determined using a Wako-ASC-ACOD kit (Wako Chemical GmbH, Neuss, Germany). Triglycerides were determined using a Triglyceride kit (Sigma Chemical Co., Poole, United Kingdom) and 3-hydroxybutyrate by a quantitative enzymatic determination kit (Sigma). Glucose was measured using a glucose analyser (Beckman, Irvine, Calif.) and glycerol was determined enzymatically using the method of Wieland as described in “Methods of Enzymatic Analysis” (Ed, Bergmeyer, H. U.) Vol. 3, pp1404-1409, published by Academic Press, London (1974).

[2] = test system: protein expression in adipocytes, BAT and gastrocnemius muscle; experiment: Western blot analysis of tissues of ob/ob mice treated with ZAG; assay type: in vivo
Description: Western Blot Analysis—Freshly excised gastrocnemius muscles were washed in PBS and lysed PHOSPHOSAFE™ Extraction Reagent for 5 min at room temperature followed by sonication at 4° C. The lysate was cleared by centrifugation at 18,000 g for 5 min at 4° C. and samples of cytosolic protein (5 μg) were resolved on 12% sodium dodecyl suflate-polyacrylamide gel electrophoresis at 180V for approximately 1 h. This was followed by transference to 0.45 μm nitrocellulose membranes, which were then blocked with 5% Marvel in Tris-buffered saline, pH 7.5, at 4° C. overnight. Both primary and secondary antibodies were used at a dilution of 1:1000 except anti-myosin (1:250). Incubation was for lh at room temperature, and development was by FCL. Blots were scanned by a densitometer to quantify differences.

[3] = Daily i.v. ZAG in mature male Wistar rats for 10 days (body weight, composition, plasma metabolites); assay type: in vivo
Description: Animals Rais Mature male Wistar rats (one year old from our own colony) weighing 540 ±82.5 g were housed individually and treated once daily i. v., with either ZAG in PBS (100 μl) (50 μg per 100 g body weight), or with PBS (100 μl) as a control. Both food and water intake and body weight were measured daily. Animals were given free access to food (Special Diet Services, Essex, UK) and water ad libitum. The animal experiment was carried out under the welfare conditions imposed by the British Home Office. After 10 days treatment the animals were terminated and the body composition determined. Animals were heated to 80-90° C. for 7 days until constant weight was achieved. The water content was then determined from the difference between the wet and dry weight. Lipids were extracted from the dry carcass using a sequence of chloroform:methanol (1:1), ethanolla.cetone (1:1) and diethyl ether (120 ml of each) as described by Lundholm et al (14). The solvents were evaporated and the fat weighed. The non-fat carcass mass was calculated as the difference between the initial weight of the carcass and the weight of water and fat.
as §1

[4] = test system: epididymal adipocytes, gastrocnemius muscle and BAT; experiment: Glucose uptake into epididymal adipocytes, gastrocnemius muscle and BAT of rats treated with ZAG; assay type: in vivo, Wistar rats
Description: FIG. 12D is a graphical diagram showing glucose uptake into gastrocnemius muscle and BAT of male Wistar rats after 10 days treatment with either ZAG or PBS. in the absence or presence of insulin (60 μU/ml). Differences between ZAG and PBS treated animals are shown as a, p<0.05, b, p<0.01 or c, p<0.001, while differences in the presence of insulin are shown as or f, p<0.001.
Glucose (intake into Atlipocpyes Isolated adipocytes (5×10^4) were washed twice in 1 ml Krebs-Ringer bicarbonate buffer, pH 7.2 (KRBS) and further incubated for 10 min at room temperature in 0.5 ml KRBS containing 18.5MBq […]-^14CI deoxy-D-glucose and non-radioactive 2-deoxy-D-glucose to a final concentration of 0.1 mM. Uptake was terminated by the addition of 1 ml ice-cold glucose-free KRBS, and the cells were washed three times with 1 ml KRBS, lysed by addition of 0.5 ml 1 M NaOH and left for at least 1 h at room temperature before the radioactivity was determined by liquid scintillation counting.
Glucose Uptake into Gostrocneinius Muscle—Gastrocnemius muscles were incubated in Krebs-Henseleit bicarbonate butler for 45 min at 37° C. and then incubated for a further 10 min in 5 ml Krebs-Henseleit butler containing 185M Bq 2-[1-^14C]deoxy-D-glucose and non-radioactive 2-deoxy-D-glucose to a final concentration of 0.1 mM. The muscles were then removed and washed in 0.9% NaCl for 5 min followed by dissolution in 0.5 ml 1M NaOH and the radioactivity was determined by liquid scintillation counting.

[5] = Insulin tolerance test in ob/ob mice administered ZAG for 3 days; assay type: in vivo
Description: An insulin tolerance test was also carried out in ob/ob mice administered. ZAG for 3 days (FIG. 23). Animals were administered two doses of insulin (10 and 20 U/kg) by i.p. injection and blood glucose was measured over the next 60 min. […] The glucose disappearance curve for 20 U/kg +PBS was almost identical to 10 U/kg +ZAG, so at this dose level ZAG is reducing the requirement for insulin by 50%, but this can be overcome by giving more insulin.

[6] = Glucose and triolein oxidation, tissue glucose utilization and BAT oxygen uptake in mice treated with ZAG; assay type: in vivo
Description: FIG. 12E is a graphical diagraph showing tissue Rg in ob/ob mice administered ZAG, c, p<0.001 from PBS.
FIG. 24 is a graphical diagram showing the oxidation of D-[U-^14C glucose] to ^14CO2 in ob/ob mice.
FIG. 25 is a graphical diagram showing production of ^14CO^2 from [^14C carboxy] triolein in ob/ob mice.

[7] = ob/ob mice treated for 120 h, wet weight

B1: Zinc-α2-glycoprotein (protein, listed as Homo sapiens)
chain: QENQDGRYSLTYIYTGLSKHVEDVPAFQALGSLNDLQFFRYNSKDRKSQPMGLWRQVEGMEDWKEDSQLQKAREDMETLKDIVEYYNDSNGSHVLQGRFGCEIENNRSSGAFWKYYYDGKDYIEFNKEIPAWVPFDPAAQITKQKWEAEPVYVQRAKAYLEEECPATLRKYLKYSKNILDRQDPPSVVVTSHQAPGEKKKLKCLAYDFYPGKIDVHWTRAGQVQEPELRGDVLHNGNGTYQSWVVVAVPPQDTAPYSCHVQHSSLAQPLVVPWEAS
notes: recombinant human Zinc-α2-glycoprotein, lipid mobilizing factor, expressed in HEK293F cells
BAT ([1]; ob/ob mice treated for 120 h): 0.73 ± 0.12 p < 0.01 g | NEFA (plasma) ([1]; ob/ob mice treated for 120 h): 0.73 ± 0.05 p < 0.001 mEq/L | TG (plasma) ([1]; ob/ob mice treated for 120 h): 0.9 ± 0.1 p < 0.05 mmol/L | Gastrocncinius [1, 7]: 1.12 ± 0.14 p < 0.01 g | Soleus [1, 7]: 0.80 ± 0.09 p < 0.01 g | rise of body temperature ([1]; ob/ob mice, after 4 days of ZAG administration): 0.4 °C | weight difference between the groups ([1]; ob/ob mice, after 5 days, ZAG vs PBS): 3.5 g | expression of HSL in epididymal adipocytes ([2]; 5 days ZAG): increased expression of HSL | expression of HSL in subcutaneous or visceral adipocytes ([2]; 5 days ZAG): no increase | expression of UCP1 and UCP3 in BAT and UCP3 in skeletal muscle ([2]; 5 days ZAG): increased the expression | expression of pERK ([2]; 5 days ZAG, ep, sc, vis adipose tissue): increase in expression of pERK only in ep adipose tissue | phospholipase A2 (PLA2) and p38 mitogen activated protein kinase ([2]; gastrocnemius muscle): attenuated | time ZAG expression was maintained in cultured ep adipocytes ([2]; no ZAG added to culture medium): 3 days | expression of HSL and ATGL in epididymal adipose tissue ([2]; ob/ob mice): increases the expression | actin levels ([2]; skeletal muscle): did not change | Starting weight ([3]; male rats, before treatment): 530 ± 45 g | Triglycerides (plasma) ([3]; rats treated for 10 days): 1.1 ± 0.09^a mmol/l | decrease in plasma levels of non-esterified fatty acids (NEFA) ([3]; rats, 10 days): 55% | elevation in body temperature ([3]; rats, significant within 24 h of first administration): 0.4 °C | glucose uptake into gastrocnemius muscle and BAT ([4]; absence of insulin, vs PBS): small, non-significant increase | glucose uptake into adipocytes, ZAG versus PBS treated animals ([4]; presence of insulin (60 μU/ml)): no significant difference | glucose uptake into gastrocnemius muscle and BAT ([4]; presence of insulin (60 μU/ml)): significant increase in uptake | insulin tolerance test, blood glucose response ([5]; insulin 10 U/kg i.p., vs PBS): increased sensitivity to insulin | insulin tolerance test, difference ZAG versus PBS ([5]; insulin 20 U/kg i.p.): difference disappeared | glucose utilization/oxidation by brain, heart, BAT and gastrocnemius muscle [6]: increased glucose utilizationloxidation | production of 14CO2 from D-[U-14C] glucose and [14C carboxy] triolein [6]: increased production
